Assay results published in patent US20050053990.

Legend:
Assay in all cases: cleavage_in_vitro
[1] = system: AvaII; conditions: DNA strand 100% cleaved; NEBuffer 4 (Mg2+), 37 C, 4 h; Table 1 does not name the oligos
[2] = system: BtsI; conditions: DNA strand 100% cleaved
[3] = system: Sau3AI; conditions: DNA strand 0% cleaved
[4] = system: SfaNI; conditions: DNA strand 100% cleaved
[5] = system: Cac8I; conditions: DNA strand 100% cleaved; NEBuffer 3, 37 C, 4 h; Table 1 does not name the oligos

AAAGCUAAGCGGACCGAGUCGACUGCAUCGUCAUGAAAAAA / TTTTTTCATGACGATGCAGTCGACTCGGTCCGCTTAGCTTT [A/B RNA/DNA duplex]
activity (% RNA strand cleaved) [1]: 100

BtsI site RNA/DNA duplex
activity (% RNA strand cleaved) [2]: 70

Sau3AI site RNA/DNA duplex
activity (% RNA strand cleaved) [3]: 80

SfaNI site RNA/DNA duplex
activity (% RNA strand cleaved) [4]: 100

UAAAGGCGCGCCCGCAUGCUUUA / TAAAGCATGCGGGCGCGCCTTTA [I/L RNA/DNA duplex]
activity (% RNA strand cleaved) [5]: 100
